The target in the assay is T1, hemagglutinin (HA) of A/WSN/1933, on transfected HEK-293T cells (Influenza A virus A/WSN/1933 (H1N1), UniProt P03454).
T1 construct: source: HEK-293T, transfected with HA-expressing plasmid, on cells
As to the kind of experiment: fluorescence imaging with FRAP of labelled antibody on transfected cells. To be noted: one partner purified.

B1: C05 IgG (antibody, V domains shown)
VH: QVQLQESGGGLVQPGESLRLSCVGSGSSFGESTLSYYAVSWVRQAPGKGLEWLSIINAGGGDIDYADSVEGRFTISRDNSKETLYLQMTNLRVEDTGVYYCAKHMSMQQVVSAGWERADLVGDAFDVWGQGTMVTVSS
VL: DIQLTQSPSSLSASVGDRVTLTCQASQDIRKFLNWYQQKPGKGPKLLIYDASNLQRGVPSRFSGGGSGTDFTLIISSLQPEDVGTYYCQQYDGLPFTFGGGTKVVIK
notes: not shown: ybbR, C-terminal, kept; copies: 2 + 2
Consider B1, for which the binding result was “binds”.

B2: FI6v3 IgG (antibody, V domains shown)
VH: QVQLVESGGGVVQPGRSLRLSCAASGFTFSTYAMHWVRQAPGKGLEWVAVISYDANYKYYADSVKGRFTISRDNSKNTLYLQMNSLRAEDTAVYYCAKDSQLRSLLYFEWLSQGYFDYWGQGTLVTVSS
VL: not shown
notes: as for B1
As for B2, the binding result is on record as “binds”.

B3: S139\1 IgG (antibody, V domains shown)
VH: QVQLQQSGTELKKPGASVKISCKATGYTFSSYWIEWIKQRPGHGLEWIGEILPEIGMTNYNENFKGKATFTANTSSNTVYMQLSSLTSEDSAVYYCARPYDYSWFAYWGQGTLVTVSA
VL: DIVMTQSQKFMSTSVGDRVSVTCKASQNVDTNVAWYQEKPGQSPKTLIYSASNRYSGVPDRFTGSASGTDFTLTITNVQSEDLAEYFCQQYNSYPYTFGGGTKLEIK
notes: as for B1
On to B3, for which the binding result is on record as “binds”.

The values above are taken from PMC10878280 (Journal of Virology, 2024).
